{"source": "patent US20200087410A1", "about": "(GLYCOTOPE, published 2020)", "molecular_target": "T1, CD40 (immobilized CD40, antigen ELISA / surface plasmon resonance) (human, UniProt P25942 21-193, limits assumed)", "T1 construct": "also called TNFRSF5; TNF receptor super family member 5", "T1 sequence (P25942 21-193 limits assumed)": "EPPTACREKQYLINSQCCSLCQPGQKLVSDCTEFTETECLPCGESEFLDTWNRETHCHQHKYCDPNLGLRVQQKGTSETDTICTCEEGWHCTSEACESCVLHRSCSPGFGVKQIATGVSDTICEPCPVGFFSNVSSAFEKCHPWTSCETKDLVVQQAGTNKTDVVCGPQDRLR", "assay": "immobilized CD40; screen by antigen ELISA and surface plasmon resonance (method of the KD not named)", "procedure": "Following expression of the different constructs in NM-H9D8 and NM-H9D8-E6Q12 cells, the titer of the humanized antibody variants was determined and their concentration adjusted. Then, the humanized antibodies were screened in an antigen ELISA and via surface plasmon resonance."}
{"binder": "humanized anti-CD40 antibody variant VH10/VL2 (as screened in Example 3) (antibody, V domains shown, Human gamma1 or gamma2 heavy constant region and human kappa constant region; also called hLob) VH: EVQLVQSGAEVKKPGASVKISCKTSGYTFTEYIMHWVKQSPGKSLEWIGGIIPNNGGTSYNQKFKDRVTMTVDKSISTGYMELSRLRSDDTAVYYCTRREVYGRNYYALDYWGQGTLVTVSS VL: DIQMTQSPSSLSASVGDRVTITCSASQGINNYLNWYQQKPGKAPKLLIYYTSSLHSGVPSRFSGSGSGTDYTFTISSLQPEDIATYYCQQYSNLPYTFGQGTKLEIKR", "values": [{"measurement": "Kd", "value": 25, "unit": "nM"}]}
